Results from patent US20250277030A1 (Zymeworks, published 2025).

Columns and labels:
[1] = molecular target: T1, human sodium-dependent phosphate transporter 2B (NaPi2b) (human, UniProt O95436 1-690); test: flow cytometry, IGROV-1 cells (endogenous NaPi2b); apparent Kd
T1 construct: UniProt ID is given as 095436 [sic]; also called hNaPi2b; Hu NaPi2b
T1 sequence: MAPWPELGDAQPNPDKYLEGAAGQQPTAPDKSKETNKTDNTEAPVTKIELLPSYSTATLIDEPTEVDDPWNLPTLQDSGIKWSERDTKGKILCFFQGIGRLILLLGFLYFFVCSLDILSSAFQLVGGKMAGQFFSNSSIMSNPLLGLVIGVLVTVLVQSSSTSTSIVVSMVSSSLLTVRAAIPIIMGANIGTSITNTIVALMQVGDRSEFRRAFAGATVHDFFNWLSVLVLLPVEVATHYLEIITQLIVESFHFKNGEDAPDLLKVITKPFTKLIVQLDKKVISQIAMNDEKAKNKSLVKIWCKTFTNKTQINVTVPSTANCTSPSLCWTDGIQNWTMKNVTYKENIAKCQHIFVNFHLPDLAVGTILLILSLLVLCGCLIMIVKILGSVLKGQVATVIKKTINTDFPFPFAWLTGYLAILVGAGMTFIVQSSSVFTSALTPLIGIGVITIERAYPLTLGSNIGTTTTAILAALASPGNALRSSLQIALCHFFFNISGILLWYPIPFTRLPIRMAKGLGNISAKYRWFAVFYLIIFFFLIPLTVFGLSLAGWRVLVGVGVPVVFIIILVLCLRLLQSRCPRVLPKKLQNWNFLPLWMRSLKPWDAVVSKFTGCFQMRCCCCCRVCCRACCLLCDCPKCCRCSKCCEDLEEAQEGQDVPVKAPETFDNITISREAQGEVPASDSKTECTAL
Procedure: (§1) Briefly, HEK293-6e cells were transfected for ˜24 hours to transiently express human NaPi2b, cynomolgus or mouse NaPi2b, at 1 μg of DNA per 1 million cells. Following transfection, 50,000 cells per well were seeded in V-bottom 96-well plates and incubated with 200 nM of primary antibody for 18-24 hours at 4° C. to prevent internalization. Post-incubation, cells were washed and stained with anti-Human IgG Fc AF647 conjugate (Jackson Immuno Research Labs, West Grove, PA, Cat. No. 109-605-098, Lot. No. 124868) at 4° C. for 1 hour. Following staining and washing, fluorescence was detected by flow cytometry on BD LSRFortessa™ Cell Analyzer (BD Biosciences, Franklin Lake, NJ) with 10,000 minimum events collected per well. The AF647/APC-A GeoMean (fluorescence signal geometric mean, proportional to anti-Human AF647 binding) was calculated for the live singlet cell population for each primary antibody using FlowJo™ v8 software (BD Biosciences, Franklin Lake, NJ). The Bmax and Kd of each primary antibody were calculated using GraphPad Prism Version 9 (GraphPad Software, San Diego, CA)
(§2) The ability of ADCs to bind to cells expressing NaPi2b was assessed. […] Binding to endogenous high NaPi2b-expressing cell lines IGROV-1 and HCC-78 was assessed by flow cytometry according to methods described in Example 5.

cynomolgus monkey NaPi2b = molecular target: T2, cynomolgus monkey NaPi2b (cynomolgus monkey, UniProt O95436 1-690 (human entry)); test: flow cytometry, HEK293-6e cells transfected with cynomolgus NaPi2b; apparent Kd
T2 construct: Transiently expressed on HEK293-6e cells; also called Cyno NaPi2b
T2 chain: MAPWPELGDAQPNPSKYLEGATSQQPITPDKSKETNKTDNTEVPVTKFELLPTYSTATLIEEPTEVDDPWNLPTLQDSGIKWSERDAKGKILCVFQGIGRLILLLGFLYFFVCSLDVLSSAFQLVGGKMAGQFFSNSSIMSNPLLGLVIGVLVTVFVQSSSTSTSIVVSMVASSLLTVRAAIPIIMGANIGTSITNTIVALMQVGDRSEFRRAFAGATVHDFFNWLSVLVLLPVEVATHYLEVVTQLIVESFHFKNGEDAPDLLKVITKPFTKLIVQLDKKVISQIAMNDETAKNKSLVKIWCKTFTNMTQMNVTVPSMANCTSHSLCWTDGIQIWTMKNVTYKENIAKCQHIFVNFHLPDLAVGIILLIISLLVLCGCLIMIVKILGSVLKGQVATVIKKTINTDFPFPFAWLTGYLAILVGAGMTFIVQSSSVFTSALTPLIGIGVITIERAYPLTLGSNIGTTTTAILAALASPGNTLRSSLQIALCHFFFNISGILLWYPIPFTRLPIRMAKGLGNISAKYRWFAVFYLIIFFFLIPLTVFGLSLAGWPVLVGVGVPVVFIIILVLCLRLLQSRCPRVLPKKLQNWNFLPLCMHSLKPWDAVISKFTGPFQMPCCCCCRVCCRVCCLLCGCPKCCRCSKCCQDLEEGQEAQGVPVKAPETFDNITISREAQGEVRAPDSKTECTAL
Procedure: The binding cross-reactivity of humanized antibody variant v29456 to human, cynomolgus and mouse NaPi2b was assessed by flow cytometry using HEK293-6e transfected cells.
as §1

[2] = molecular target: T1, human sodium-dependent phosphate …; test: cell-based or functional assay
[3] = molecular target: T1, human sodium-dependent phosphate …; test: flow cytometry on IGROV-1 cells (endogenous NaPi2b), 4 C, anti-human IgG Fc AF647 detection
Procedure: as §1, §2

[4] = molecular target: T1, human sodium-dependent phosphate …; test: flow cytometry on TOV-21G cells (endogenous NaPi2b), 24 h at 4 C, anti-human IgG Fc AF647 detection
Procedure: Briefly, cells were seeded at 50,000 cells/well in conical-bottom 96-well plates and treated with test antibody for 24 hours at 4° C. to prevent internalization. […] Following incubation, cells were washed and stained with anti-Human IgG Fc AF647 conjugate (Jackson Immuno Research Labs, West Grove, PA; Cat. No. 109-605-098) at 4° C. for 30 min. Following incubation and washing, fluorescence was detected by flow cytometry on a BD LSRFortessa™ Cell Analyzer (BD Biosciences, Franklin Lake, NJ) with 1,000 minimum events collected per well. The AF647/APC-A GeoMean (fluorescence signal geometric mean, proportional to anti-Human AF647 binding) was calculated for the live cell population using FlowJo™ Version 10.8.1 (BD Biosciences, Franklin Lake, NJ) and plotted for each test antibody using GraphPad Prism Version 9 (GraphPad Software, San Diego, CA).
The ability of the humanized antibody variants v38591 and v29456 to bind to NaPi2b expressed on cells was assessed on endogenous NaPi2b-expressing tumor cell lines IGROV-1 (ovarian adenocarcinoma) and TOV-21G (ovarian carcinoma) by flow cytometry.
Cellular binding was performed according to methods described in Example 13.

Kd [1]: 0.65 nM
Kd (cynomolgus monkey NaPi2b): 3.2 nM
Internalized Fluorescence Fold-Over Palivizumab, HCC-78, 5 hrs [2]: 25.3 fold
Internalized Fluorescence Fold-Over Palivizumab, HCC-78, 24 hrs [2]: 59.9 fold
Internalized Fluorescence Fold-Over Palivizumab, NCI-H441, 5 hrs [2]: 2.4 fold
Internalized Fluorescence Fold-Over Palivizumab, NCI-H441, 24 hrs [2]: 4 fold
EC50 (read off the curve) [3]: ~0.6 nM
EC50 (read off the curve) [4]: ~0.7 nM
B1: v29456 humanized anti-NaPi2b antibody (H1L2) (antibody, human IgG1, kappa)
heavy: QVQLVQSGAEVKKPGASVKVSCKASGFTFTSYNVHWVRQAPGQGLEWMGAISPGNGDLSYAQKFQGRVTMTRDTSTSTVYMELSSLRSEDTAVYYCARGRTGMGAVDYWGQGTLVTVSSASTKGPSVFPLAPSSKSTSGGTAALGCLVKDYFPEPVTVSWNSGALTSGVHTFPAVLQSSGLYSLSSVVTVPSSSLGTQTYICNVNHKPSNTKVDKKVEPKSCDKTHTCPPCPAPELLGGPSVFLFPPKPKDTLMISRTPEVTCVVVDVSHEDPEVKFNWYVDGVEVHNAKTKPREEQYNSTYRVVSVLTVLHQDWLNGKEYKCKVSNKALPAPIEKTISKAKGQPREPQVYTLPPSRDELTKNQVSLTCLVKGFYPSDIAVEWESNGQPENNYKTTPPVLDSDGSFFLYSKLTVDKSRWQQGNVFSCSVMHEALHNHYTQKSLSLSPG
light: DVQMTQSPSSLSASVGDRVTITCRASQDVYSYLNWYQQKPGKAVKLLIYYTSRLQSGVPSRFSGSGSGTDYTLTISSLQPEDFATYYCQQYNIFPWTFGQGTKLEIKRTVAAPSVFIFPPSDEQLKSGTASVVCLLNNFYPREAKVQWKVDNALQSGNSQESVTEQDSKDSTYSLSSTLTLSKADYEKHKVYACEVTHQGLSSPVTKSFNRGEC
